Experimental findings from publication PMC12775002, “Human O-GlcNAcase catalytic-stalk dimer anchors flexible histone binding domains” (Communications Chemistry, 2025) are described below.

The labels stand for the following.
B1: human O-GlcNAcase, long isoform (OGA-L), full length (enzyme, UniProt O60502 1-916, looked up)
chain: MVQKESQATLEERESELSSNPAASAGASLEPPAAPAPGEDNPAGAGGAAVAGAAGGARRFLCGVVEGFYGRPWVMEQRKELFRRLQKWELNTYLYAPKDDYKHRMFWREMYSVEEAEQLMTLISAAREYEIEFIYAISPGLDITFSNPKEVSTLKRKLDQVSQFGCRSFALLFDDIDHNMCAADKEVFSSFAHAQVSITNEIYQYLGEPETFLFCPTEYCGTFCYPNVSQSPYLRTVGEKLLPGIEVLWTGPKVVSKEIPVESIEEVSKIIKRAPVIWDNIHANDYDQKRLFLGPYKGRSTELIPRLKGVLTNPNCEFEANYVAIHTLATWYKSNMNGVRKDVVMTDSEDSTVSIQIKLENEGSDEDIETDVLYSPQMALKLALTEWLQEFGVPHQYSSRQVAHSGAKASVVDGTPLVAAPSLNATTVVTTVYQEPIMSQGAALSGEPTTLTKEEEKKQPDEEPMDMVVEKQEETDHKNDNQILSEIVEAKMAEELKPMDTDKESIAESKSPEMSMQEDCISDIAPMQTDEQTNKEQFVPGPNEKPLYTAEPVTLEDLQLLADLFYLPYEHGPKGAQMLREFQWLRANSSVVSVNCKGKDSEKIEEWRSRAAKFEEMCGLVMGMFTRLSNCANRTILYDMYSYVWDIKSIMSMVKSFVQWLGCRSHSSAQFLIGDQEPWAFRGGLAGEFQRLLPIDGANDLFFQPPPLTPTSKVYTIRPYFPKDEASVYKICREMYDDGVGLPFQSQPDLIGDKLVGGLLSLSLDYCFVLEDEDGICGYALGTVDVTPFIKKCKISWIPFMQEKYTKPNGDKELSEAEKIMLSFHEEQEVLPETFLANFPSLIKMDIHKKVTDPSVAKSMMACLLSSLKANGSRGAFCEVRPDDKRILEFYSKLGCFEIAKMEGFPKDVVILGRSL
notes: human O-GlcNAcase (OGA), long isoform OGA-L, 103 kDa, full length, codon optimized; also called hOGA; full-length recombinant OGA; source: E. coli TOP10 (pBAD), purified (Talon resin for the arrays; HisTrap and size-exclusion chromatography for cryo-EM); not shown: His6, N-terminal, kept

For series [1], the target named is recombinant mononucleosome with the H4K5,8,12,16Ac modification (UniProt P62805). The series can be described thus: pull-down; 500 nM biotinylated mononucleosomes with 0, 25, 50, 100, 250 and 500 nM full-length OGA in OGA assay buffer, overnight 4 °C; captured on streptavidin magnetic beads; bound OGA-L quantified by immunoblot (anti-MGEA5); saturation plot and Scatchard analysis. (A western blot detects proteins with antibodies after separation by electrophoresis.)

Series [2] addresses recombinant mononucleosome with the H3K36Me3 modification. Described as above.
Series [3] concerns the molecule itself. The series can be described thus: cryo-EM structure; apo full-length OGA-L, about 0.5 ug/ul in 20 mM Tris, 150 mM NaCl; Titan Krios 300 kV.
For series [4], the target named is B1. The series can be described thus: peptide or protein array; Active Motif MODified histone peptide array (384 modified histone peptides in duplicate, immobilised); 100 nM protein in 20 mM Tris pH 7.5, 1 mM DTT, 0.5 mg/mL BSA, RT 1 h; detected with anti-His6 antibody; 3 or more arrays. The settings on record: both partners purified.

For orientation: Kd means the concentration at which binding is half-saturated.

Regarding B1, the Kd in series [1] stood at 220 nM; in series [2], 290 nM. The binding result in series [3] was “binds”.

B2: histone H4 1-19 peptide, K5,8,12,16Ac (peptide, UniProt P62805 2-20, looked up)
peptide: SGRGKGGKGLGKGGAKRHR
modifications: acetyl-lysine at K5, K8, K12 and K16
notes: histone H4 tail peptide, residues 1-19, on the array; also called H4 1-19 K^5,8,12,16Ac; H4K^5,8,12,16Ac; source: bought: Active Motif MODified Histone Peptide Array (peptide on the array)
With B2, in series [4], the binding result is given as “binds”.

B3: histone H4 1-19 peptide, K8,12,16Ac (peptide, UniProt P62805 2-20, looked up)
peptide: SGRGKGGKGLGKGGAKRHR
modifications: acetyl-lysine at K8, K12 and K16
notes: histone H4 tail peptide, residues 1-19, on the array; also called H4 1-19 K^8,12,16Ac; H4K^8,12,16Ac; source: bought: Active Motif MODified Histone Peptide Array (peptide on the array)
B3: the binding result in series [4] is reported as “binds”.
